B1: GST-SURF4^49-60 [human] / CW peptides (KRRHPKKC) [not stated (human or mouse cDNA cloned)] (parent complex)
chain 1: SEQRDYIDTTWN
chain 2: KRRHPKKC

Data on one variant can be found in article PMC8931250, “A SURF4-to-proteoglycan relay mechanism that mediates the sorting and secretion of a tagged variant of sonic hedgehog” (Proceedings of the National Academy of Sciences of the …, 2022).

Variants of B1 are the subject of the assay. Put plainly: peptide pull-down (peptides on thiopyridone Sepharose 6B), anti-GST immunoblot quantification; n = 3, mean ± SD; parent: 1; read off a plot.
Turning to chain 2 K1A, chain 2 R2A, chain 2 R3A, chain 2 K6A, chain 2 K7A, the ratio to parent was about 0.03.
